Where two headings read alike, the source gives them in different places.

For data set [1], the target named is T1, putrescine monooxygenase (SpPMO) (Shewanella putrefaciens, UniProt A0A4D6BRL2).
T1 construct: gene pubA
T1 sequence (A0A4D6BRL2 1-505): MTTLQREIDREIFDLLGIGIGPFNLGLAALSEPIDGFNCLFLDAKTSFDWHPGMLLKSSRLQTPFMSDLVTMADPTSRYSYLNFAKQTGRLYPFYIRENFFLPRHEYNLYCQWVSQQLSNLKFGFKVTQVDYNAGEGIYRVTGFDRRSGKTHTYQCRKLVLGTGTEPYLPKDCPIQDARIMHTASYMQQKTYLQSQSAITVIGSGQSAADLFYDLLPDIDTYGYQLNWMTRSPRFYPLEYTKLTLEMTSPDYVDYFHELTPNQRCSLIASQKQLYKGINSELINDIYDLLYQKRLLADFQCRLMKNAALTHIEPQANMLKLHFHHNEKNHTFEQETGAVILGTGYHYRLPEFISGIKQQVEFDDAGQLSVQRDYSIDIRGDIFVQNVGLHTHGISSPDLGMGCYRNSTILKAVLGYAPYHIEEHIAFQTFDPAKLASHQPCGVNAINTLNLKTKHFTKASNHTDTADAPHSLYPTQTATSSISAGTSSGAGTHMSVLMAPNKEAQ
Nature of the data set: Csaky iodine oxidation product-formation assay with […] enzyme; Lineweaver-Burk plots. The format is biochemical.

Substrate in data set [2]: NCCCCN
In words: Michaelis-Menten kinetics, N-hydroxyl putrescine formation by Csaky iodine oxidation assay (Km). The data set is classed as biochemical, Shewanella putrefaciens. The settings on record: FAD.

[3] abbreviates: NADPH putrescine binding pocket: Pro22, Phe23, Gly26, Leu399, Gly402 and Asn406 (docking).

For the molecule `C[C@@H]1O[C@@H](Oc2ccc(CC#N)cc2)[C@H](O)[C@H](O)[C@H]1O` [niazirin], the Ki in data set [1] (read-out: Ki) was determined as 18.38 ± 0.008 µM.

In the case of `COc1cc(/C=C/C(=O)CC(=O)/C=C/c2ccc(O)c(OC)c2)ccc1O` [curcumin], in data set [1], the inhibition constant (Ki) was 2.6 ± 0.0036 µM.

B1: putrescine monooxygenase (SpPMO) (Shewanella putrefaciens) (protein)
chain: MTTLQREIDREIFDLLGIGIGPFNLGLAALSEPIDGFNCLFLDAKTSFDWHPGMLLKSSRLQTPFMSDLVTMADPTSRYSYLNFAKQTGRLYPFYIRENFFLPRHEYNLYCQWVSQQLSNLKFGFKVTQVDYNAGEGIYRVTGFDRRSGKTHTYQCRKLVLGTGTEPYLPKDCPIQDARIMHTASYMQQKTYLQSQSAITVIGSGQSAADLFYDLLPDIDTYGYQLNWMTRSPRFYPLEYTKLTLEMTSPDYVDYFHELTPNQRCSLIASQKQLYKGINSELINDIYDLLYQKRLLADFQCRLMKNAALTHIEPQANMLKLHFHHNEKNHTFEQETGAVILGTGYHYRLPEFISGIKQQVEFDDAGQLSVQRDYSIDIRGDIFVQNVGLHTHGISSPDLGMGCYRNSTILKAVLGYAPYHIEEHIAFQTFDPAKLASHQPCGVNAINTLNLKTKHFTKASNHTDTADAPHSLYPTQTATSSISAGTSSGAGTHMSVLMAPNKEAQ
For the molecule B1, the Km in data set [2] (NADPH) amounted to 3.81 µM. In data set [2] (setting [3]), the Vmax is 0.246 µmol/min/mg and the kcat was 0.237 s⁻¹.

A word on the Ki: it is the dissociation constant of the complex between target and ligand, obtained from inhibition or displacement. The term Km denotes the concentration of substrate that gives half-maximal velocity. For orientation: Vmax means the top rate of the reaction or transport when substrate is in excess. By kcat is commonly meant the number of substrate molecules converted per active site and unit of time at saturation.

The values above are taken from article PMC9005580, “In silico structural, phylogenetic and drug target analysis of putrescine monooxygenase from Shewanella putrefaciens-95” (Journal of Genetic Engineering & Biotechnology, 2022).
